Assay results published in the supplement of paper PMC9170038.

System: MS2 coat protein
Assay: apparent KD of MS2 coat protein; designed switch direction (-1 OFF switch, 1 ON switch): -1; higher = weaker reporter binding
How it was run: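 The buffer was Tris-HCl pH 7.5 with KCl, MgCl2, BSA, DTT, tRNA and Tween-20. In it, SNAP-549-labelled MS2 coat protein was titrated in doubling steps from 0.7 or 1.5 nM to 3 µM over chip-bound RNA switches transcribed by stalled E. coli RNA polymerase on Illumina chips. Apparent KD is the per-design median over clusters of curve fits to normalised fluorescence.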

[1] = Eterna round: R95, input ligand: microRNA oligo, concentration not stated
[2] = Eterna round: R95, input ligand: FMN 200 uM
[3] = Eterna round: R95, input ligand: none
[4] = input ligand: microRNA oligo, concentration not stated

Row | Sequence | apparent KD of MS2 coat protein [1] [nM] | apparent KD of MS2 coat protein (input ligand: FMN 200 uM) [nM] | apparent KD of MS2 coat protein (input ligand: none) [nM] | apparent KD of MS2 coat protein [2] [nM] | apparent KD of MS2 coat protein [3] [nM] | apparent KD of MS2 coat protein [4] [nM]
1 | UGGCAAGUAGGAUAUUGGGUGUGGGACAUGAGGAUCACCCAUGUGAUCACUCAAUCUCUCCGAGAAGGGCUAAGAA [Araes] (puzzle: Exclusion 5) | 14 | – | – | – | – | –
2 | UGGCUACAUGAGGAUCACCCAUGUCAGGAUAUGCCGUUGAAUUGACAUCGACGUACGGGUAGAAGGGACUGCGU [1st #10] (Eterna round: R97, puzzle: Exclusion 1) | – | 50 | 41.6 | – | – | –
3 | UGGGUACAUGAGGAUCACCCAUGUGAGGAUAUGCCGGAAGAAUCGCAGAAAUGAGCCAGUAGAAGGCACAAGGG [Eternabot (L2) Solution 100] (Eterna round: R97, puzzle: Exclusion 1) | – | 1300 | 1190 | – | – | –
4 | UGGUAACAUGAGGAUCACCCAUGUCAGGAUAUCAGGAAGAGGAGAGGAGAGGAGAAGAUGAGAAGGGACUAUAU [Excluse me! 12 - Jieux - Exclusion 1] (puzzle: Exclusion 1) | 19.8 | – | – | – | – | –
5 | UGGUAACAUGAGGAUCACCCAUGUCAGGAUAUCAGUAAGAAUAGAUUAGAUUAGAAUAUGAGAAGGGACUAUAU [Excluse me! 4 - Jieux - Exclusion 1] (puzzle: Exclusion 1) | 30.9 | – | – | – | – | –
6 | UGUAAGCUAGGAUAUGCUUUGGGAAAGCAUUCCUUCGAUAAACUUGAGGAUCACCCAAGUAGAAGGAGCUUACA [salish99_ex2_r4_005] (Eterna round: R97, puzzle: Exclusion 2) | – | 20.8 | 12.4 | – | – | –
7 | UGUACGAUGCGUGCUGACAUGCGUCGUGCAGCAGGUUUUACAUGAGGAUCACCCAUGUCCUCACUUGCUCGUCUUGU (puzzle: Sensor v3, turn-off variant 2) | 187 | – | – | 257 | 279 | –
8 | UGUACUAUGCGAGCUGACUUGCGUAGUGCAGCAGGUGGAACAUGAGGAUCACCCAUGUCCUCAUUUGCUCGUCUUAU [SL-sv3-2.03 JL mod] (puzzle: Sensor v3, turn-off variant 2) | 143 | – | – | 39 | 41.2 | –
9 | UGUCAGAUGGUAGGAUAUCCAUAUCGAGUGACCCUUUCAUAACAUGAGGAUCACCCAUGUCGGUGGGAGAAGGGCCGUACGGUG [salish99_ExNG02_R04_024] (Eterna round: R96, puzzle: Exclusion NG 2) | – | 27.1 | 36.2 | – | – | 29.6
10 | UGUCAGAUGGUAGGAUAUCCGUAUCGCGUGUCCCUUUCCUAACAUGAGGAUCACCCAUGUCGGUGGGAGAAGGGCCGUAUGGUG [salish99_ExNG02_R04_037] (Eterna round: R96, puzzle: Exclusion NG 2) | – | 12.9 | 15.3 | – | – | 10.6
11 | UGUGUCCGGGAGGAUAUCAGAACGCUAGUGGUCUGAGAAGGCCUAACAUGAGGAUCACCCAUGUGAUUAUUUAU [Eternabot (L2) Solution 51] (Eterna round: R97, puzzle: Exclusion 6) | – | 93.4 | 52.5 | – | – | –
12 | UGUGUGAGACAGGAUAUGCCGGAUGAAUUGCAGGUAGAAGGGUCUACAUGAGGAUCACCCAUGUGGCCGGUUGG [Ex6 #76] (Eterna round: R97, puzzle: Exclusion 6) | – | 19.8 | 13.6 | – | – | –
13 | UGUGUGAGACAGGAUAUGCCGGUUGUAUUACUGGUAGAAGGGUCUACAUGAGGAUCACCCAUGUGGCCGGCCGG [Ex6 #82] (Eterna round: R97, puzzle: Exclusion 6) | – | 73.1 | 26.2 | – | – | –
14 | UGUUGGCGAGGAUAUACAUGAGGAUCACCCAUGUGAGAGAAAAAAGUGAGGAAGAAAAGUAGAAGGCGCUGACC [salish99_ex3_r3_042] (puzzle: Exclusion 3) | 41 | – | – | 165 | 55.1 | –
15 | UGUUGGUACGUAGGAUAUCCACCAACAGGUGGAAGGAUAUGUACGCAGAAGGUUCGCCAACAGGCGGAGAAGGACGUGGUAACU [pwkr exNG2 2xF7 2xFMN.29] (Eterna round: R96, puzzle: Exclusion NG 2) | – | 34.6 | 169 | – | – | 73.8
16 | UGUUGUCGCGUAGGAUAUGAGGAUCACCCAUAUACAGGAUAUGAAAAGAAGGGUCUGAGGAUCACCCAGAAGGACGGGACAACU [pwkr exNG2 2xF5 2xFMN.28] (Eterna round: R96, puzzle: Exclusion NG 2) | – | 1390 | 116 | – | – | 94.9
17 | UGUUGUCGCGUAGGAUAUGGCCAACAGGCCCUAGGAUAUGCGAAAGCAGAAGGAGCGCCAACAGGCGAGAAGGACGGGACAACU [pwkr exNG2 2xF7 2xFMN.17] (Eterna round: R96, puzzle: Exclusion NG 2) | – | 20.6 | 359 | – | – | 13.6
18 | UGUUGUCGCGUAGGAUAUGGCCAACAGGCCCUAGGAUAUGGGAAACCAGAAGGAGCGCCAACAGGCGAGAAGGACGGGACAACU [pwkr exNG2 2xF7 2xFMN.19] (Eterna round: R96, puzzle: Exclusion NG 2) | – | 734 | 268 | – | – | 451
19 | UGUUGUUACGCAGGAUAUCCACCAACAGGUGGAAGGAUAUGUACGCAGAAGGUUCGCCAACAGGCGGAGAAGGGCGGGUUAACA [pwkr exNG2 2xF7 2xFMN.26] (Eterna round: R96, puzzle: Exclusion NG 2) | – | 178 | 3690 | – | – | 63.4
20 | UGUUGUUCAGGAUAUGGUGUGUUGUACAUGAGGAUCACCCAUGUGGGUCCUGGUUUGGCGUCAGAAGGGAAUGUUG [salish99_ex5_r4_118] (Eterna round: R97, puzzle: Exclusion 5) | – | 482 | 778 | – | – | –
21 | UUAAAACGUGUAGGAUAUGCGUGGCGAAGCUAUGCAGAAGGACAUGAGGAUCACCCAUGUUCCUGCGUCCGCGUACGGAUGCAA [JL Eng1 1.21 mod 2] (Eterna round: R96, puzzle: Exclusion NG 1) | – | 18 | 13.1 | – | – | 11.9
22 | UUAAAUCAUGUAGGAUAUGCGUGGCGAAGCUAUGCAGAAGGACAUGAGGAUCACCCAUGUGCUUCCGUCUGCGUACAGAUGGUA [JL ENG1 1.13] (Eterna round: R96, puzzle: Exclusion NG 1) | – | 315 | 62.5 | – | – | 52.7
